Assay [1] concerns the target human Trypsin (Sigma) (human) (UniProt P07477). Put plainly: cell-based or functional assay.
Assay [2] deals with AS-SPIK (Abnormal Secreted serine protease inhibitor Kazal), purified or partially purified from the medium of S2-3 cells (human) (UniProt P00995). The assay is described as follows: cell-based or functional assay.

Some results are limits rather than exact numbers.

In the case of “AS-SPIK (Abnormal Secreted serine protease inhibitor Kazal), purified or partially purified from the medium of S2-3 cells (from UniProt P00995 24-79)”, the inhibition of trypsin digestion of 1 uM BML (Boc-Gln-Ala-Arg-AMC) after 60 minutes, 3 nM AS-SPIK and 2 ng/ml trypsin in assay [1] worked out at 70%.

B1: monoclonal antibody IM-CA22 (antibody, V domains shown)
VH: QIQLQQSGPELVKPGTSVKLSCKASGYTFTDYYINWVKQRPGQGLEWIGWIYPGSGNPIYNENFKDKATLTVDTSSTTAYLQLSSLTSEDSAVYFCAREWGCAMDSWGQGTSVTVSS
VL: DIVMTQSPSSLSVSTGEKVTMSCKSSQSLLNSGNQKNYLAWYQQKPGQSPKLLIYGASTRESGVPDRFTGSGSGTEFTLTISSVQAEDLAVYYCQSDYSHPYTFGGGTKLEIK
B1 came in with a restoration of Trypsin activity (inhibition of AS-SPIK activity) at 60 minutes, 1 ug/ml IM-CA22 pre-incubated with 3 nM AS-SPIK in assay [2] above 60%.

(Values after patent US20210253734A1.)
